Here are results for one molecule from patent publication US20230310602A1 (published 2023).

Test [1] addresses T1, HCELL (exofucosylated CD44) on FTVII-treated human MSCs (FuchAdMSCs, adipose-derived); FuchBMMSCs, bone … (human, UniProt P16070 21-742, fucose installed in α(1,3)-linkage onto sialyllactosaminyl glycans of CD44 by fucosyltransferase VII with GDP-fucose (creates sLe^x)). In words: cell-based or functional assay.
Test [2] concerns the target T1, HCELL (exofucosylated CD44) on …. In words: cell-based or functional assay. This is another data set of the same source.

T1 sequence (P16070 21-742): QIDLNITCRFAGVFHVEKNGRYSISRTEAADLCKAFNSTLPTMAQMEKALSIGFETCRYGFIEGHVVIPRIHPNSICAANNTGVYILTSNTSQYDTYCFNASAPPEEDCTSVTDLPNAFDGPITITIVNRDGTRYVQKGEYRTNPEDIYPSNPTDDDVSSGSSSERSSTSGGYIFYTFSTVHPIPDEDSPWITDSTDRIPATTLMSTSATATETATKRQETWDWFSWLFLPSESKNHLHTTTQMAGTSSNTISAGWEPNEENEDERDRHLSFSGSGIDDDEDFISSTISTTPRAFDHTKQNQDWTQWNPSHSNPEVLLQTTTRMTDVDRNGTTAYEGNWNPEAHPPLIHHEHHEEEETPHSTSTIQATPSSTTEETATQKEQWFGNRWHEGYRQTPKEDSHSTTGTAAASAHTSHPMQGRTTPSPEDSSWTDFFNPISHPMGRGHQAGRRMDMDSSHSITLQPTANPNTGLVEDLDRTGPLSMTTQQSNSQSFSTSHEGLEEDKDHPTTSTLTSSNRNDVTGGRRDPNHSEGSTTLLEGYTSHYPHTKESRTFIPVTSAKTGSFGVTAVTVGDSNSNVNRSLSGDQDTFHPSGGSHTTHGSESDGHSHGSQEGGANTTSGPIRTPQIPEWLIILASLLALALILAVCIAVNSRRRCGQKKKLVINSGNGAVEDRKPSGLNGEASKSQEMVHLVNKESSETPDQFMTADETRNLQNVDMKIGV

B1: Recombinant mouse E-selectin-human Fc chimera (mE-Ig) (Fc fusion, UniProt Q00690 22-557, looked up, not shown: a dimerising Fc or GST)
chain: WYYNASSELMTYDEASAYCQRDYTHLVAIQNKEEINYLNSNLKHSPSYYWIGIRKVNNVWIWVGTGKPLTEEAQNWAPGEPNNKQRNEDCVEIYIQRTKDSGMWNDERCNKKKLALCYTASCTNASCSGHGECIETINSYTCKCHPGFLGPNCEQAVTCKPQEHPDYGSLNCSHPFGPFSYNSSCSFGCKRGYLPSSMETTVRCTSSGEWSAPAPACHVVECEALTHPAHGIRKCSSNPGSYPWNTTCTFDCVEGYRRVGAQNLQCTSSGIWDNETPSCKAVTCDAIPQPQNGFVSCSHSTAGELAFKSSCNFTCEQSFTLQGPAQVECSAQGQWTPQIPVCKAVQCEALSAPQQGNMKCLPSASGPFQNGSSCEFSCEEGFELKGSRRLQCGPRGEWDSKKPTCSAVKCDDVPRPQNGVMECAHATTGEFTYKSSCAFQCNEGFSLHGSAQLECTSQGKWTQEVPSCQVVQCPSLDVPGKMNMSCSGTAVFGTVCEFTCPDDWTLNGSAVLTCGATGRWSGMPPTCEAPVSPTRP
On to B1, for which, in test [1], the “IDO in supernatant, ratio FuchAdMSCs/UhAdMSCs, mE-IG (1 µg/ml)” value is 6.75 ratio; the “IDO in supernatant, ratio FuchAdMSCs/UhAdMSCs, mE-IG (5 µg/ml)” value turned out to be 7.72 ratio; the “IDO in supernatant, ratio FuchBMMSCs/UhBMMSCs, mE-IG (1 µg/ml)” value was determined as 4.71 ratio; the “IDO in supernatant, ratio FuchBMMSCs/UhBMMSCs, mE-IG (5 µg/ml)” value was 4.74 ratio. Moreover, in test [1], the “IL-10 in supernatant, ratio FuchAdMSCs/UhAdMSCs, mE-IG (1 µg/ml)” value amounted to 12.7 ratio; the “IL-10 in supernatant, ratio FuchAdMSCs/UhAdMSCs, mE-IG (5 µg/ml)” value was 16 ratio; the “IL-10 in supernatant, ratio FuchBMMSCs/UhBMMSCs, mE-IG (1 µg/ml)” value stood at 3.87 ratio; the “IL-10 in supernatant, ratio FuchBMMSCs/UhBMMSCs, mE-IG (5 µg/ml)” value was 4.85 ratio. In test [1], the “NO2^-/NO3^- in supernatant, ratio FuchAdMSCs/UhAdMSCs, mE-IG (1 µg/ml)” value was determined as 5.12 ratio; the “NO2^-/NO3^- in supernatant, ratio FuchAdMSCs/UhAdMSCs, mE-IG (5 µg/ml)” value was found to be 5.9 ratio; the “NO2^-/NO3^- in supernatant, ratio FuchBMMSCs/UhBMMSCs, mE-IG (1 µg/ml)” value was 3.31 ratio; the “NO2^-/NO3^- in supernatant, ratio FuchBMMSCs/UhBMMSCs, mE-IG (5 µg/ml)” value worked out at 5.14 ratio. In test [1], the “TGFβ in supernatant, ratio FuchAdMSCs/UhAdMSCs, mE-IG (1 µg/ml)” value came to 12.2 ratio; the “TGFβ in supernatant, ratio FuchAdMSCs/UhAdMSCs, mE-IG (5 µg/ml)” value stood at 12.4 ratio; the “TGFβ in supernatant, ratio FuchBMMSCs/UhBMMSCs, mE-IG (1 µg/ml)” value is 8.11 ratio; the “TGFβ in supernatant, ratio FuchBMMSCs/UhBMMSCs, mE-IG (5 µg/ml)” value stood at 8.5 ratio. Also, the “IL-10 production of adipose-derived hAdMSCs, ratio of FuchMSCs/UhMSCs for E-selectin exposure” value in test [2] was 10 fold.
